The Immune Epitope Database (IEDB)

Key:
HLA-A*02:03 = assay: IEDB peptide-MHC binding, purified MHC/competitive/fluorescence; filed as Kd, often an IC50 or EC50 that approximates it; ≥ and ≤ were set here for values at or beyond the usual limits of such assays
HLA-A*26:03 = assay: as above; conditions: source organism: Homo sapiens
HLA-B*18:01 = assay: as above; conditions: source organism: Homo sapiens
HLA-B*08:01 = assay: as above; conditions: source organism: Homo sapiens
HLA-B*39:01 = assay: as above; conditions: source organism: Homo sapiens
HLA-A*02:06 = assay: as above
HLA-A*30:01 = assay: as above; conditions: source organism: Homo sapiens
HLA-B*15:01 [1] = assay: as above; conditions: source organism: Homo sapiens
HLA-A*26:02 = assay: as above
HLA-C*07:02 = assay: IEDB peptide-MHC binding, purified MHC/direct/fluorescence; filed as Kd, often an IC50 or EC50 that approximates it; ≥ and ≤ were set here for values at or beyond the usual limits of such assays
HLA-A*02:01 [2] = assay: IEDB peptide-MHC binding, purified MHC/competitive/fluorescence; ≥ and ≤ were set here for values at or beyond the usual limits of such assays; conditions: source organism: Vaccinia virus WR
HLA-A*11:01 = assay: as above; conditions: source organism: Vaccinia virus WR
HLA-A*03:01 = assay: as above; conditions: source organism: Vaccinia virus WR
HLA-A*24:02 [3] = assay: as above; conditions: source organism: Vaccinia virus WR
HLA-B*15:01 [4] = assay: as above; conditions: source organism: Vaccinia virus WR
HLA-A*01:01 = assay: as above; conditions: source organism: Vaccinia virus WR
HLA-A*02:01 [5] = assay: IEDB peptide-MHC binding, purified MHC/competitive/fluorescence; filed as Kd, often an IC50 or EC50 that approximates it; ≥ and ≤ were set here for values at or beyond the usual limits of such assays; conditions: source organism: Human immunodeficiency virus 1
HLA-B*15:17 = assay: as above; conditions: source organism: Human immunodeficiency virus 1
HLA-B*35:01 = assay: as above; conditions: source organism: Human immunodeficiency virus 1
HLA-C*14:02 = assay: as above
HLA-C*06:02 [6] = assay: as above; conditions: source organism: Mycobacterium tuberculosis variant bovis BCG str. Pasteur 1173P2
HLA-A*68:23 = assay: as above; conditions: source organism: Mycobacterium tuberculosis variant bovis BCG str. Pasteur 1173P2
HLA-C*04:01 = assay: as above
HLA-B*45:06 = assay: as above
HLA-B*15:42 = assay: as above
HLA-B*83:01 = assay: as above
HLA-B*40:02 = assay: IEDB peptide-MHC binding, cellular MHC/competitive/fluorescence; ≥ and ≤ were set here for values at or beyond the usual limits of such assays; conditions: source organism: Homo sapiens
HLA-A*24:02 [7] = assay: as above; conditions: source organism: Human herpesvirus 5 strain AD169
HLA-A*03:19 = assay: IEDB peptide-MHC binding, purified MHC/competitive/fluorescence; filed as Kd, often an IC50 or EC50 that approximates it; ≥ and ≤ were set here for values at or beyond the usual limits of such assays; conditions: source organism: human gammaherpesvirus 4
HLA-B*27:20 = assay: as above; conditions: source organism: Giardia lamblia ATCC 50803
HLA-B*46:01 = assay: as above; conditions: source organism: Giardia lamblia ATCC 50803
HLA-C*03:03 = assay: IEDB peptide-MHC binding, purified MHC/direct/fluorescence; filed as Kd, often an IC50 or EC50 that approximates it; ≥ and ≤ were set here for values at or beyond the usual limits of such assays; conditions: source organism: Giardia lamblia ATCC 50803
HLA-C*06:02 [8] = assay: as above; conditions: source organism: Giardia lamblia ATCC 50803
HLA-C*05:01 = assay: as above; conditions: source organism: Giardia lamblia ATCC 50803
HLA-C*08:02 = assay: as above; conditions: source organism: Giardia lamblia ATCC 50803
HLA-C*12:03 = assay: as above; conditions: source organism: Giardia lamblia ATCC 50803
HLA-C*15:02 = assay: as above; conditions: source organism: Giardia lamblia ATCC 50803
[9] = source organism: Human immunodeficiency virus 1
[10] = source organism: Mycobacterium tuberculosis variant bovis BCG str. Pasteur 1173P2
[11] = source organism: human gammaherpesvirus 4
[12] = source organism: Giardia lamblia ATCC 50803

Sequence: FRHSVVVPY
- Kd (HLA-A*02:03; source organism: Homo sapiens): ≥ 20000 nM
- Kd (HLA-A*26:03): ≥ 20000 nM
- Kd (HLA-B*18:01): 477 nM
- Kd (HLA-B*08:01): ≥ 20000 nM
- Kd (HLA-B*39:01): ≥ 20000 nM
- Kd (HLA-A*02:06; source organism: Homo sapiens): ≥ 20000 nM
- Kd (HLA-A*30:01): 4080 nM
- Kd (HLA-B*15:01 [1]): 315 nM
- Kd (HLA-A*26:02; source organism: Homo sapiens): ≥ 20000 nM
- Kd (HLA-C*07:02; source organism: Homo sapiens): ≤ 1 nM

Sequence: ITCKAFGLY
- IC50 (HLA-A*02:01 [2]): ≥ 173000 nM
- IC50 (HLA-A*11:01): 2820 nM
- IC50 (HLA-A*03:01): 15400 nM
- IC50 (HLA-A*24:02 [3]): ≥ 85100 nM
- IC50 (HLA-B*15:01 [4]): 14000 nM
- IC50 (HLA-A*01:01): 1550 nM

Sequence: LYNTIAVLY
- Kd (HLA-A*02:03; [9]): 721 nM
- Kd (HLA-A*02:01 [5]): 2320 nM
- Kd (HLA-B*15:17): ≥ 20000 nM
- Kd (HLA-B*35:01): 1870 nM
- Kd (HLA-A*02:06; [9]): 759 nM
- Kd (HLA-A*26:02; [9]): ≥ 20000 nM
- Kd (HLA-C*07:02; [9]): 2130 nM

Sequence: MAAVRTTAL
- Kd (HLA-C*14:02; [10]): 14.4 nM
- Kd (HLA-C*06:02 [6]): 104 nM
- Kd (HLA-A*68:23): 5.5 nM
- Kd (HLA-C*04:01; [10]): ≥ 20000 nM
- Kd (HLA-B*45:06; [10]): ≥ 5000 nM
- Kd (HLA-B*15:42; [10]): ≥ 5000 nM
- Kd (HLA-B*83:01; [10]): 508 nM

Sequence: SSYGNIRAV
- IC50 (HLA-B*40:02): 1800 nM

Sequence: VYALPLKML
- IC50 (HLA-A*24:02 [7]): 7500 nM

Sequence: WPTPKTHPV
- Kd (HLA-C*14:02; [11]): 142 nM
- Kd (HLA-A*03:19): 1080 nM
- Kd (HLA-B*45:06; [11]): ≥ 5000 nM
- Kd (HLA-B*15:42; [11]): ≥ 5000 nM
- Kd (HLA-B*83:01; [11]): 3470 nM

Sequence: YMRERFEPM
- Kd (HLA-C*14:02; [12]): 0.3 nM
- Kd (HLA-C*04:01; [12]): ≥ 5000 nM
- Kd (HLA-B*27:20): 0.5 nM
- Kd (HLA-B*45:06; [12]): ≥ 5000 nM
- Kd (HLA-B*15:42; [12]): ≥ 5000 nM
- Kd (HLA-B*46:01): 21.8 nM
- Kd (HLA-B*83:01; [12]): ≥ 5000 nM
- Kd (HLA-C*03:03): 452 nM
- Kd (HLA-C*06:02 [8]): 22 nM
- Kd (HLA-C*05:01): ≥ 20000 nM
- Kd (HLA-C*08:02): ≥ 20000 nM
- Kd (HLA-C*12:03): 38 nM
- Kd (HLA-C*15:02): 70 nM
